Publication PMC11142921, “Antibody discovery identifies regulatory mechanisms of protein arginine deiminase 4” (Nature Chemical Biology, 2024)
Changes are numbered by the printed parent chain. In names and notes the source's numbering stands.

Assays:
[1] = target: T1, human protein arginine deiminase 4 (hPAD4), wild type (human, UniProt Q9UM07, biotin on the N-terminal AviTag); test: negative-stain EM; hPAD4 incubated with Fab fragments in equimolar amounts; 2D micrographs; uranyl formate stain; settings: both partners purified
T1 construct: Protein arginine deiminase 4, human; 'full length hPAD4 (74 kDa)'; PreScission or TEV site between the tags and PAD4; Tags were captured on streptavidin in BLI and ELISA; In solution it is in a dimer-monomer equilibrium; also called hPADI4; WT hPAD4; source: BirA-expressing E. coli (C43 (DE3) Pro+ or BL21 Gold (DE3)), purified (Ni-NTA, 0.5 mM TCEP); not shown: AviTag, N-terminal, kept

[2] = target: T2, mouse protein arginine deiminase 4 (mPAD4) (Mus musculus, UniProt Q9Z183, biotin on the N-terminal AviTag); test: BLI; Octet RED384; biotinylated mPAD4 on streptavidin biosensors, antibody as analyte; TBSTB; 10 mM Ca2+; settings: both partners purified
T2 construct: Protein arginine deiminase 4, mouse; PreScission or TEV site between the tags and PAD4; also called murine PAD4; source: BirA-expressing E. coli (C43 (DE3) Pro+ or BL21 Gold (DE3)), purified (Ni-NTA, 0.5 mM TCEP); not shown: AviTag, N-terminal, kept

[3] = target: T2, mouse protein arginine deiminase 4 …; test: BLI; Octet RED384; biotinylated mPAD4 on streptavidin biosensors, antibody as analyte; TBSTB; calcium-free form of mPAD4; settings: both partners purified
PAD2 = target: T3, PAD2 (Homo sapiens (assumed), UniProt Q9Y2J8); test: BLI; binding of the functional human antibodies to PAD4, PAD2 and PAD3; who was immobilised and the antibody format are not told for this experiment; settings: both partners purified
T3 construct: PAD2, commercially available; also called protein arginine deiminase 2

[4] = target: T1, human protein arginine deiminase 4 …; test: as above; settings: both partners purified
hPAD4 R8E = target: T4, hPAD4 R8E (human, UniProt Q9UM07, R8E); test: BLI; Octet RED384; biotinylated hPAD4 (WT or mutant) on streptavidin biosensors, purified binder as analyte; TBSTB; calcium concentration not told for these experiments; 1:1 monovalent model; settings: both partners purified
T4 construct: Protein arginine deiminase 4, human, point mutant; Mutant of the hPAD4 construct m1; source: cloned and expressed as hPAD4 (E. coli, Ni-NTA)

[5] = target: T5, hPAD4 R8E–Y435A double mutant (human, UniProt Q9UM07, R8E | Y435A); test: as above; settings: both partners purified
T5 construct: Protein arginine deiminase 4, human, double mutant; Mutant of the hPAD4 construct m1; also called R8E/Y435 double mutant; source: cloned and expressed as hPAD4 (E. coli, Ni-NTA)

hPAD4 Y435A = target: T6, hPAD4 Y435A (human, UniProt Q9UM07, Y435A); test: as above; settings: both partners purified
T6 construct: Protein arginine deiminase 4, human, point mutant; Mutant of the hPAD4 construct m1; source: cloned and expressed as hPAD4 (E. coli, Ni-NTA)

[6] = target: T1, human protein arginine deiminase 4 …; test: BLI; Octet RED384; biotinylated hPAD4 on streptavidin biosensors, antibody (IgG by the legend) as analyte; TBSTB; 2 and 10 mM Ca2+; 1:1 monovalent model; settings: both partners purified
[7] = target: T1, human protein arginine deiminase 4 …; test: cell-based or functional assay
PAD3 = target: T7, PAD3 (Homo sapiens (assumed), UniProt Q9ULW8); test: BLI; binding of the functional human antibodies to PAD4, PAD2 and PAD3; who was immobilised and the antibody format are not told for this experiment; settings: both partners purified
T7 construct: PAD3, commercially available; also called protein arginine deiminase 3

[8] = target: T1, human protein arginine deiminase 4 …; test: BLI; Octet RED384; biotinylated hPAD4 (WT or mutant) on streptavidin biosensors, purified binder as analyte; TBSTB; calcium concentration not told for these experiments; 1:1 monovalent model; settings: both partners purified

T2 sequence (Q9Z183 whole entry): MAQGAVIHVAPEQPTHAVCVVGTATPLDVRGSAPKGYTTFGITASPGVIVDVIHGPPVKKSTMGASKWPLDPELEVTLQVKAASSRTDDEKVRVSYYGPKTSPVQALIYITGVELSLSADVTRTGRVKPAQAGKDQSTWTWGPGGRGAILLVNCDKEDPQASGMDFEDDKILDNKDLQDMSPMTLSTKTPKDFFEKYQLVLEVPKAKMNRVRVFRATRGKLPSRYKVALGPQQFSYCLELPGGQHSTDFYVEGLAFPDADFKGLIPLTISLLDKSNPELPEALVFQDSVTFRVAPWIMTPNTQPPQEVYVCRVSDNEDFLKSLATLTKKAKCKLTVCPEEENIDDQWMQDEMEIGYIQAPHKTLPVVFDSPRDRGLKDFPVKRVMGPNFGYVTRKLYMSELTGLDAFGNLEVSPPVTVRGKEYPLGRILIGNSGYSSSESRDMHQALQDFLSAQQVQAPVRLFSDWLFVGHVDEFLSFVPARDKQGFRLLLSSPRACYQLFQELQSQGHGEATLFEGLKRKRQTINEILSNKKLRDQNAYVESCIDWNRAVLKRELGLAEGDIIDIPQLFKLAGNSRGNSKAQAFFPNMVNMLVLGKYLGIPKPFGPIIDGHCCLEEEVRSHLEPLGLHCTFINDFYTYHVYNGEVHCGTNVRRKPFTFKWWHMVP
T1 sequence (Q9UM07 whole entry, the tested form may be a part): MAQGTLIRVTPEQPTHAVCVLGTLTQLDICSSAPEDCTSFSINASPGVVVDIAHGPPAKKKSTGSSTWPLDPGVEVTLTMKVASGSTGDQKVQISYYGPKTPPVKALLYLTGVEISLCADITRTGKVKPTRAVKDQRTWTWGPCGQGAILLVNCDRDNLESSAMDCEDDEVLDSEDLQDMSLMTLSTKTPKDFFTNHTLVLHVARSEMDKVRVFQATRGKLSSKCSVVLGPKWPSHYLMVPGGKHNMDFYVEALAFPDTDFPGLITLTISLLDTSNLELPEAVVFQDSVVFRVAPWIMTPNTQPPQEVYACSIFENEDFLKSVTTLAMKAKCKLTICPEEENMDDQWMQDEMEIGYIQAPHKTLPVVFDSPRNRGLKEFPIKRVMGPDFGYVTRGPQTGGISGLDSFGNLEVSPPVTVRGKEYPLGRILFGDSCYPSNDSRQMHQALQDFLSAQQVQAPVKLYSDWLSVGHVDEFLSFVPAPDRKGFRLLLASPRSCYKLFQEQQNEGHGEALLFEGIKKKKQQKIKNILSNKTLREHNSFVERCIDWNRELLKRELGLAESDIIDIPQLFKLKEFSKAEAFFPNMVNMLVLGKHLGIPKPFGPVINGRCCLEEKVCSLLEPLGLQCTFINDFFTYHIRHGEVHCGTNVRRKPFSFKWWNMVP
T3 sequence (Q9Y2J8 whole entry): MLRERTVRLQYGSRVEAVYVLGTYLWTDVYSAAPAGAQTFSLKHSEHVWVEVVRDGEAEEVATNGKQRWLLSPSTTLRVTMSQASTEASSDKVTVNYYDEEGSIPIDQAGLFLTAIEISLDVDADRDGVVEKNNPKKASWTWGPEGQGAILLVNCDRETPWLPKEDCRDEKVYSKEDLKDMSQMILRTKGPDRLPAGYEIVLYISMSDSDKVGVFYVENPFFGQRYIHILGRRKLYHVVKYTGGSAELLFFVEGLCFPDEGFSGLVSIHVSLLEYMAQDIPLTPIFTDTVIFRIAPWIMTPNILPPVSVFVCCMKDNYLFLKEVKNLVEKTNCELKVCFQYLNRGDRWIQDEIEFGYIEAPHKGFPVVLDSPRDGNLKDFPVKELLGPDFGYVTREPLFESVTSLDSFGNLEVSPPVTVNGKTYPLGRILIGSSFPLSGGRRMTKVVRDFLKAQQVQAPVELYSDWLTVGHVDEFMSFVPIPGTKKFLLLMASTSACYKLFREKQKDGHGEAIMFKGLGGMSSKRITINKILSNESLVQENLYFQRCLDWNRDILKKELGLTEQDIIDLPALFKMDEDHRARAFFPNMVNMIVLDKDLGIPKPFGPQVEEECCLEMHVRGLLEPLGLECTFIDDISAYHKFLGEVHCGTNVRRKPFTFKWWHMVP
T4 sequence (Q9UM07 whole entry R8E): as the sequence (Q9UM07 whole entry, the tested form may be a part) above, with R8E counted along it
T7 sequence (Q9ULW8 whole entry): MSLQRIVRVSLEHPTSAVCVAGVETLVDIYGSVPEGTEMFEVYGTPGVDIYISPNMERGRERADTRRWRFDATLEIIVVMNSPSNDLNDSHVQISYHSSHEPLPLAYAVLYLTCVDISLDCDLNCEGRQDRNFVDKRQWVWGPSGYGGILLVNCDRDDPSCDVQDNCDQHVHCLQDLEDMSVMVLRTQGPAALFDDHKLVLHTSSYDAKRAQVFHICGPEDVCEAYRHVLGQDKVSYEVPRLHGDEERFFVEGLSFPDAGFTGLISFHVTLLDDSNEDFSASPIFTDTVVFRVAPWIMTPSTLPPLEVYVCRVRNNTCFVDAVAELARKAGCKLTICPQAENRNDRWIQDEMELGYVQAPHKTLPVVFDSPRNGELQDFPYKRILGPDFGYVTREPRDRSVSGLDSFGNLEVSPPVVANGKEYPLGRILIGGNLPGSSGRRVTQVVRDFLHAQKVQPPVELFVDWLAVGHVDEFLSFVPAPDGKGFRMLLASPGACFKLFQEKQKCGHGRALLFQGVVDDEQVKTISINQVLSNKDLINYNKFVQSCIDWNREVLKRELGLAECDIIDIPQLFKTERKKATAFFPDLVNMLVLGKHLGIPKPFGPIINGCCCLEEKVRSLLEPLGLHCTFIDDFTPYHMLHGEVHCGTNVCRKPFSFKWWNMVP
T6 sequence (Q9UM07 whole entry Y435A): as the sequence (Q9UM07 whole entry, the tested form may be a part) above, with Y435A counted along it
T5 sequence (Q9UM07 whole entry R8E/Y435A): as the sequence (Q9UM07 whole entry, the tested form may be a part) above, with R8E, Y435A counted along it

B1: hI281 Fab (Fab, V domains shown)
VH: EVQLVESGGGLVQPGGSLRLSCAASGFNVSYSSIHWVRQAPGKGLEWVASIYPYYGSTSYADSVKGRFTISADTSKNTAYLQMNSLRAEDTAVYYCARQMYYWMFSKLALDYWGQGTLVTVSS
VL: DIQMTQSPSSLSASVGDRVTITCRASQSVSSAVAWYQQKPGKAPKLLIYSASSLYSGVPSRFSGSRSGTDFTLTISSLQPEDFATYYCQQSYYRTLFTFGQGTKVEIK
notes: Fab heavy chain of hI281; light chain of hI281; From synthetic Fab-phage library E (4D5-type scaffold); also called Fab-hI281; source: E. coli C43 (DE3) Pro+, purified (Ni-NTA)
binding result [1]: binds

B2: mA342-c3 (antibody, V domains shown)
VH: EVQLVESGGGLVQPGGSLRLSCAASGFNVYSSSIHWVRQAPGKGLEWVASISSSSGYTYYADSVKGRFTISADTSKNTAYLQMNSLRAEDTAVYYCARYSASIYYYSGYPAYHAGLDYWGQGTLVTVSS
VL: B1 VL with S91W, Y92S, R94S, T95R, F97A
notes: as the heavy chain of m20 with the stated changes; as the light chain of m20 with the stated change; The text names it mA342-c3, the legends mA342-c4
binding result [2]: binds

B3: mA342 IgG (antibody, V domains shown)
VH: B2 VH with A101Y, A111Y, A114M
VL: B1 VL with S91W, Y92S, R94S, T95R, F97I
notes: heavy chain of mA342 fused to hIgG1-Fc (pFUSE-hIgG1-Fc); light chain of mA342; also called WT mA342; source: Expi293, transiently cotransfected, purified (protein A or Ni-NTA); copies: 2 + 2
Kd [2]: < 0.001 µM | Kd [3]: 200 µM

B4: hA362 IgG (antibody, V domains shown)
VH: EVQLVESGGGLVQPGGSLRLSCAASGFNVSYYSIHWVRQAPGKGLEWVASISPYYGSTYYADSVKGRFTISADTSKNTAYLQMNSLRAEDTAVYYCARHPYRKGYSGLDYWGQGTLVTVSS
VL: B1 VL with Y92S, R94L, T95P
notes: heavy chain of hA362 fused to hIgG1-Fc (pFUSE-hIgG1-Fc); as the light chain of m13; IgG1; source: Expi293, transiently cotransfected, purified (protein A or Ni-NTA); copies: 2 + 2
binding result (PAD2): no binding | binding result [4]: binds

B5: hA362 Fab (Fab, V domains shown)
VH: B4 VH
VL: B1 VL with Y92S, R94L, T95P
notes: Fab heavy chain of hA362; light chain of hA362; also called Fab hA362; source: E. coli C43 (DE3) Pro+, purified (Ni-NTA)
fold decrease of binding affinity against WT hPAD4 (hPAD4 R8E): ~3 fold | fold decrease of binding affinity against WT hPAD4 [5]: ~160 fold | fold decrease of binding affinity against WT hPAD4 (hPAD4 Y435A): ~10 fold | binding result [1]: binds

B6: hI281 IgG (antibody, V domains shown)
VH: B1 VH
VL: B1 VL
notes: heavy chain of hI281 fused to hIgG1-Fc (pFUSE-hIgG1-Fc); as the light chain of m10; IgG1; source: Expi293, transiently cotransfected, purified (protein A or Ni-NTA); copies: 2 + 2
binding result [6]: binds

B7: hA288 Fab (Fab, V domains shown)
VH: EVQLVESGGGLVQPGGSLRLSCAASGFNVYYSSIHWVRQAPGKGLEWVASIYSYSGSTSYADSVKGRFTISADTSKNTAYLQMNSLRAEDTAVYYCARYWPKMAGYWYIYRFALDYWGQGTLVTVSS
VL: B1 VL with S91Y, Y92R, Y93Q, R94Y, T95N, F97I
notes: Fab heavy chain of hA288; light chain of hA288; source: E. coli C43 (DE3) Pro+, purified (Ni-NTA)
binding result [1]: binds

B8: E3 (affinity-matured variant of hI365) (antibody, V domains shown)
VH: EVQLVESGGGLVQPGGSLRLSCAASGFNFFYSIHWVRQAPGKGLEWVASISPYTDYTSYADSVKGRFTISADTSKNTAYLQMNSLRAEDTAVYYCARKHPGSYPFWGFALDYWGQGTLVTVSS
VL: DIQMTQSPSSLSASVGDRVTITCRASQSVSSAVAWYQQKPGKAPKLLIYSASSLYSGVPSRFSGSRSGTDFTLTISSLQPEDFATYYCQQSSSSLVTFGQGTKVEIK
IC50 of PAD4 inhibition [7]: 0.094 µM | IC50 of inhibition of PAD4 citrullination of histone H3 (western blot) [7]: 0.095 µM

B9: E6 (affinity-matured variant of hI365) (antibody, V domains shown)
VH: B8 VH with F30Y, Y56R, S102R, F105N
VL: B1 VL with Y92M, Y93S, R94S, T95Q, F97V
notes: variant of the heavy chain of hI365 from soft-randomisation libraries; variant of the light chain of hI365; CDR L3 of ten amino acids; also called clone E6
binding result (PAD3): no binding | IC50 of inhibition of PAD4 citrullination of histone H3 (western blot) [7]: 0.013 µM

B10: hI365 IgG (antibody, V domains shown)
VH: B8 VH with F30Y, T54S, D55G, F108W
VL: B8 VL
notes: heavy chain of hI365 fused to hIgG1-Fc (pFUSE-hIgG1-Fc); as the light chain of m16; also called WT hI365; source: Expi293, transiently cotransfected, purified (protein A or Ni-NTA); copies: 2 + 2
Kd [6]: 0.0012 µM

B11: hI365 G58D (antibody, V domains shown)
VH: B8 VH with F30Y, T54S, F108W
VL: B8 VL
notes: as the heavy chain of hI365 with the stated change; as the light chain of hI365; also called mutant G58D
binding result [8]: binds

B12: hI364 IgG (antibody, V domains shown)
VH: EVQLVESGGGLVQPGGSLRLSCAASGFNVYSSSIHWVRQAPGKGLEWVASISSSSGSTSYADSVKGRFTISADTSKNTAYLQMNSLRAEDTAVYYCARYSDHYYYWSYWSSWYSGLDYWGQGTLVTVSS
VL: B8 VL with V96I
notes: heavy chain of hI364 fused to hIgG1-Fc (pFUSE-hIgG1-Fc); light chain of hI364; The activity screen and the selection were done with the Fab form; source: Expi293, transiently cotransfected, purified (protein A or Ni-NTA); copies: 2 + 2
Kd [6]: 0.00064 µM
